Assay results taken from patent publication US20180291335A1, “MODIFIED POLYNUCLEOTIDES FOR ALTERING CELL PHENOTYPE” (ModernaTX, Inc., priority 2012, published 2018).
“And” between values parts separate entries of the source, which are not always exact repeats. Equal entries are not always repeated.

Legend:
[1] = system: interferon-alpha (IFN-alpha); assay: 2′Fluoro chemistries in PBMC: IFN-alpha production by ELISA; assay type: cell-based, human; settings: G-CSF modified mRNA
[2] = system: tumor necrosis factor alpha (TNF-α); assay: In vitro screening in PBMC: tumor necrosis factor alpha induction by ELISA; assay type: cell-based, human
Source text: The supernatant was harvested and stored frozen until analyzed by ELISA to determine the G-CSF protein expression, and the induction of the cytokines interferon-alpha (IFN-α) and tumor necrosis factor alpha (TNF-α).

[3] = system: peripheral blood mononuclear cells (PBMC); assay: In vitro screening in PBMC: G-CSF protein expression by ELISA; assay type: cell-based, human
How it was run: (§1)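 ELISA was the detection method, applied to harvested supernatant that had been held frozen beforehand.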

[4] = system: interferon-alpha (IFN-α); assay: In vitro screening in PBMC: interferon-alpha induction by ELISA; assay type: cell-based, human
How it was run: as §1

[5] = system: rabbit reticulysates; assay: G-CSF modified mRNA in rabbit reticulysates, G-CSF ELISA; assay type: biochemical; settings: 250 ng of modified mRNA, listed as 5-methylcytosine/N1-methylpseudouridine
Description: To assess the activity of all our different chemical modifications in the context of a second open reading frame, we replicated experiments previously conducted using luciferase mRNA, with human G-CSF mRNA. […] The mutant T7 polymerase was obtained commercially (Durascribe® T7 Transcription kit (Cat. No. DS010925) (Epicentre®, Madison, Wis.).
The modified RNA in Tables 27 and 28 were transfected in vitro in HeLa cells or added to rabbit reticulysates (250 ng of modified mRNA) as indicated. […] In Table 27, “NT” means not tested.

[6] = system: tumor necrosis factor-alpha (TNF-alpha); assay: 2′Fluoro chemistries in PBMC: TNF-alpha production by ELISA; assay type: cell-based, human; settings: G-CSF modified mRNA
[7] = system: HeLa cells; assay: G-CSF modified mRNA transfected in HeLa cells, G-CSF ELISA; assay type: cell-based, human; settings: HeLa cells, ELISA
How it was run: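 Human G-CSF mRNAs bearing various chemical modifications, made with a mutant T7 polymerase, were either transfected into HeLa cells or added to rabbit reticulocyte lysate at 250 ng mRNA. G-CSF protein was quantified by ELISA.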

[8] = listed as 5-methylcytidien/N1-methylpseudouridine
[9] = listed as 5-methylcytidine/N1-methylpseudouridine
[10] = PBMC Donor 1, 500 ng G-CSF mRNA
[11] = PBMC Donor 2, 500 ng G-CSF mRNA
[12] = PBMC Donor 2, 500 ng G-CSF mRNA, listed as 5-methylcytosine and N1-methylpseudouridine (2nd set)
[13] = PBMC Donor 2, 500 ng G-CSF mRNA, listed as 5-methylcytosine and N1-methylpseudouridine (4th set)
[14] = PBMC Donor 3, 500 ng G-CSF mRNA
[15] = PBMC Donor 3, 500 ng G-CSF mRNA, listed as 5-methylcytosine and N1-methylpseudouridine (2nd set)
[16] = PBMC Donor 3, 500 ng G-CSF mRNA, listed as 5-methylcytosine and N1-methylpseudouridine (4th set)

B1: 5-methylcytosine and N1-methyl-pseudouridine (1^st set): G-CSF mRNA (SEQ ID NO: 408) fully modified with 5-methylcytosine and N1-methylpseudouridine; repeated sets/tests (nucleic acid)
chain: GGGAAAUAAGAGAGAAAAGAAGAGUAAGAAGAAAUAUAAGAGCCACCAUGGCCGGUCCCGCGACCCAAAGCCCCAUGAAACUUAUGGCCCUGCAGUUGCUGCUUUGGCACUCGGCCCUCUGGACAGUCCAAGAAGCGACUCCUCUCGGACCUGCCUCAUCGUUGCCGCAGUCAUUCCUUUUGAAGUGUCUGGAGCAGGUGCGAAAGAUUCAGGGCGAUGGAGCCGCACUCCAAGAGAAGCUCUGCGCGACAUACAAACUUUGCCAUCCCGAGGAGCUCGUACUGCUCGGGCACAGCUUGGGGAUUCCCUGGGCUCCUCUCUCGUCCUGUCCGUCGCAGGCUUUGCAGUUGGCAGGGUGCCUUUCCCAGCUCCACUCCGGUUUGUUCUUGUAUCAGGGACUGCUGCAAGCCCUUGAGGGAAUCUCGCCAGAAUUGGGCCCGACGCUGGACACGUUGCAGCUCGACGUGGCGGAUUUCGCAACAACCAUCUGGCAGCAGAUGGAGGAACUGGGGAUGGCACCCGCGCUGCAGCCCACGCAGGGGGCAAUGCCGGCCUUUGCGUCCGCGUUUCAGCGCAGGGCGGGUGGAGUCCUCGUAGCGAGCCACCUUCAAUCAUUUUUGGAAGUCUCGUACCGGGUGCUGAGACAUCUUGCGCAGCCGUGAAGCGCUGCCUUCUGCGGGGCUUGCCUUCUGGCCAUGCCCUUCUUCUCUCCCUUGCACCUGUACCUCUUGGUCUUUGAAUAAAGCCUGAGUAGGAAG
modifications: 5-methylcytosine/N1-methylpseudouridine modified; Description of Artificial Sequence: Synthetic Transcript Sequence
notes: repeated sets/tests
**Q.** How did the “IFN-alpha: 3 Donor Average” value [1, 8] turn out when B1 was run?
**A.** 35 pg/mL

**Q.** What about the “IFN-alpha: 3 Donor Average” value [1, 9] of the same molecule?
**A.** 31 pg/mL

**Q.** And the “TNF-α Expression” value [2, 10]?
**A.** 54 pg/mL

**Q.** And the “TNF-α Expression” value ([2]; PBMC Donor 1, 500 ng G-CSF mRNA, listed as 5-methylcytosine and N1-methylpseudouridine (2nd set))?
**A.** 54 pg/mL

**Q.** And the “TNF-α Expression” value ([2]; PBMC Donor 1, 500 ng G-CSF mRNA, listed as 5-methylcytosine and N1-methylpseudouridine (4th set))?
**A.** 36 pg/mL

**Q.** And the “TNF-α Expression” value [2, 11]?
**A.** 79 pg/mL

**Q.** What about the “TNF-α Expression” value [2, 12] of the same molecule?
**A.** 97 pg/mL

**Q.** And the “TNF-α Expression” value [2, 13]?
**A.** 14 pg/mL

**Q.** And the “TNF-α Expression” value [2, 14]?
**A.** 126 pg/mL

**Q.** What about the “TNF-α Expression” value [2, 15] of the same molecule?
**A.** 149 pg/mL

**Q.** What about the “TNF-α Expression” value [2, 16] of the same molecule?
**A.** 13 pg/mL

**Q.** What about the “G-CSF Protein Expression” value [3, 10] of the same molecule?
**A.** 10,232 pg/ml

**Q.** And the “G-CSF Protein Expression” value ([3]; PBMC Donor 1, 500 ng G-CSF mRNA, listed as 5-methylcytosine and N1-methyl-pseudouridine (2nd set))?
**A.** 9,564 pg/ml

**Q.** And the “G-CSF Protein Expression” value ([3]; PBMC Donor 1, 500 ng G-CSF mRNA, listed as 5-methylcytosine and N1-methyl-pseudouridine (4th set))?
**A.** 9,505 pg/ml

**Q.** What about the “G-CSF Protein Expression” value [3, 11] of the same molecule?
**A.** 7,245 pg/ml

**Q.** And the “G-CSF Protein Expression” value ([3]; PBMC Donor 2, 500 ng G-CSF mRNA, listed as 5-methylcytosine and N1-methyl-pseudouridine (2nd set))?
**A.** 8,509 pg/ml

**Q.** And the “G-CSF Protein Expression” value ([3]; PBMC Donor 2, 500 ng G-CSF mRNA, listed as 5-methylcytosine and N1-methyl-pseudouridine (4th set))?
**A.** 6,927 pg/ml

**Q.** And the “G-CSF Protein Expression” value [3, 14]?
**A.** 6,214 pg/ml

**Q.** What about the “G-CSF Protein Expression” value ([3]; PBMC Donor 3, 500 ng G-CSF mRNA, listed as 5-methylcytosine and N1-methyl-pseudouridine (2nd set)) of the same molecule?
**A.** 7,141 pg/ml

**Q.** What about the “G-CSF Protein Expression” value ([3]; PBMC Donor 3, 500 ng G-CSF mRNA, listed as 5-methylcytosine and N1-methyl-pseudouridine (4th set)) of the same molecule?
**A.** 5,405 pg/ml

**Q.** What about the “IFN-α Expression” value [4, 10] of the same molecule?
**A.** 0 pg/mL

**Q.** What about the “IFN-α Expression” value [4, 11] of the same molecule?
**A.** 60 pg/mL

**Q.** And the “IFN-α Expression” value [4, 12]?
**A.** 66 pg/mL

**Q.** What about the “IFN-α Expression” value [4, 13] of the same molecule?
**A.** 0 pg/mL

**Q.** What about the “IFN-α Expression” value [4, 14] of the same molecule?
**A.** 136 pg/mL

**Q.** What about the “IFN-α Expression” value [4, 15] of the same molecule?
**A.** 140 pg/mL

**Q.** And the “IFN-α Expression” value [4, 16]?
**A.** 0 pg/mL

**Q.** What about the “G-CSF protein (pg/ml) Rabbit reticulysates cells” value ([5]; Test A) of the same molecule?
**A.** 110,500 pg/ml

**Q.** What about the “G-CSF protein (pg/ml) Rabbit reticulysates cells” value ([5]; Test B) of the same molecule?
**A.** 76,750 pg/ml

**Q.** And the “G-CSF protein (pg/ml) Rabbit reticulysates cells” value ([5]; Test D)?
**A.** 97,125 pg/ml

**Q.** And the “TNF-alpha: 2 Donor Average” value [6, 8]?
**A.** 3 pg/mL

**Q.** What about the “TNF-alpha: 2 Donor Average” value [6, 9] of the same molecule?
**A.** 280 pg/mL

**Q.** And the “G-CSF protein (pg/ml) HeLa cells” value ([7]; G-CSF mRNA, listed as 5-methylcytosine/N1-methylpseudouridine, Control)?
**A.** 1,106,591 pg/ml

**Q.** And the “G-CSF protein (pg/ml) HeLa cells” value ([7]; G-CSF mRNA, listed as 5-methylcytosine/N1-methylpseudouridine, Test A)?
**A.** 1,534,318 pg/ml

**Q.** And the “G-CSF protein (pg/ml) HeLa cells” value ([7]; G-CSF mRNA, listed as 5-methylcytosine/N1-methylpseudouridine, Test B)?
**A.** 1,568,636 pg/ml

**Q.** What about the “G-CSF protein (pg/ml) HeLa cells” value ([7]; G-CSF mRNA, listed as 5-methylcytosine/N1-methylpseudouridine, Test D) of the same molecule?
**A.** 1,168,864 pg/ml

**Q.** What about the “G-CSF protein (pg/ml) HeLa cells” value ([7]; combination chemistries, listed as 5-methylcytidine/N1-methylpseudouridine) of the same molecule?
**A.** 747,045 pg/ml and 689,091 pg/ml

**Q.** And the “G-CSF protein (pg/ml) HeLa cells” value ([7]; combination chemistries, listed as 5-methylcytosine/N1-methylpseudouridine)?
**A.** 1,017,727 pg/ml

**Q.** What about the “G-CSF protein (pg/ml) HeLa cells” value ([7]; combination chemistries, listed as 5-methylcytosine/N1-methylpseudouridine, Control 1) of the same molecule?
**A.** 848,409 pg/ml

**Q.** What about the “G-CSF protein (pg/ml) HeLa cells” value ([7]; combination chemistries, listed as 5-methylcytosine/N1-methylpseudouridine, Control 2) of the same molecule?
**A.** 581,818 pg/ml
